Assay results taken from patent US20210340246A1 (GlaxoSmithKline, published 2021).

Target: T1, human IL-5 (human, UniProt P05113 20-134)
T1 construct: The IL-5 reagent of the SPR assay is not described further; also called interleukin-5; soluble IL-5
Experiment: standard surface plasmon resonance assays

B1: mepolizumab (monoclonal anti-IL-5 antibody; unstressed composition / control samples) (antibody, human IgG1, kappa)
heavy: not shown
light: not shown
modifications: N-terminal Gln cyclised to pyroglutamate (typically >95.0%); C-terminal K449 clipped (typically >98.0%); N299 N-glycosylated
notes: Batches MDS1 T04L003S and MDS2 T0413010; also called Oxidation Control; Light Exposure Control
- Kd: < 0.0229 nM
